Source: the supplement of paper PMC12855868

B1: library; numbered along this chain (parent)
chain: MAAAGGARLLRAASAVLGGPAGRWLHHAGSRAGSSGLLRNRGPGGSAEASRSLSVSARARSSSEDKITVHFINRDGETLTTKGKVGDSLLDVVVENNLDIDGFGACEGTLACSTCHLIFEDHIYEKLDAITDEENDMLDLAYGLTDRSRLGCQICLTKSMDNMTVRVPETVADARQSIDVGKTS

Variants of: B1
Assay: scaled log2 fold change in cell abundance, elesclomol vs control (0 = silent mean, 1 = nonsense mean) (scaled log2 ratio); higher = higher viability under elesclomol (loss of FDX1 cuproptosis function)
Conditions: glucose 10 mM
Method: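 Deep mutational scan of full-length human FDX1: a pooled saturation-mutagenesis ORF library (every residue 2-184 mutated to all 19 amino acids plus stop, and silent codons where available) was expressed by lentivirus in FDX1-knockout ABC1 (14 days) or HEK293T (11 days) cells grown with elesclomol (ES) or DMSO control. Variant abundance came from ORF sequencing. The log2 fold change (ES vs control, mean of duplicates) was centred on the silent-variant mean (0) and scaled to the nonsense-variant mean (1). Higher values mean greater viability under ES, i.e. loss of FDX1 function in cuproptosis.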

[1] = with ABC1 FDX1 KO, elesclomol 5 nM, 14 days
[2] = with HEK293T FDX1 KO, elesclomol 40 nM, 11 days
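Note: variant abundance is its share of total variant reads in each endpoint sample, from next-generation sequencing of the integrated ORF PCR-amplified out of genomic DNA.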

Variant	scaled log2 fold change [1]	scaled log2 fold change [2]
L38A	-0.113	–
L38C	-0.631	0.0841
L38D	0.132	-0.187
L38E	0.019	0.931
L38F	0.294	0.135
L38G	-0.74	–
L38H	0.153	0.35
L38I	-0.615	0.0108
L38K	-0.0234	0.601
L38M	0.492	1.02
L38N	0.377	0.121
L38P	-0.12	0.667
L38Q	-0.878	-0.206
L38R	0.333	1.23
L38S	-0.172	-0.0978
L38T	0.403	0.953
L38V	-0.109	–
L38W	-0.0179	–
L38Y	-0.0523	-0.184
R39A	0.0642	-0.565
R39C	-0.483	0.689
R39D	-0.217	1.07
R39E	-0.217	0.936
R39F	0.0891	-0.0588

Variant	scaled log2 fold change [1]	scaled log2 fold change [2]
R39G	0.577	0.061
R39H	0.0443	-0.509
R39I	-0.111	0.989
R39K	-0.687	-0.451
R39L	-0.142	-0.141
R39M	0.188	0.344
R39N	-0.39	-0.278
R39P	-0.972	-0.296
R39Q	-0.432	0.178
R39S	0.489	0.0758
R39T	-0.117	0.0293
R39V	0.374	-0.208
R39W	0.0801	0.13
R39Y	0.0455	-0.31
N40C	-0.214	1.09
N40D	-0.359	-0.577
N40E	0.118	–
N40F	-0.01	0.266
N40I	0.554	-0.704
N40K	-0.0431	0.421
N40L	-0.507	0.239
N40M	-0.291	0.304
N40P	-0.752	0.374
N40Q	-0.307	0.243

Variant	scaled log2 fold change [1]	scaled log2 fold change [2]
N40R	0.387	0.0477
N40S	0.213	0.0876
N40T	-0.748	-0.708
N40V	0.408	-0.147
N40W	-0.166	-0.235
N40Y	-0.412	-0.381
R41A	0.281	0.851
R41C	-0.0654	-0.255
R41D	0.137	-0.209
R41E	0.0687	-0.798
R41F	0.347	-0.469
R41G	-0.751	0.252
R41H	0.145	-0.535
R41I	-0.144	0.109
R41K	0.264	-0.114
R41L	0.167	0.278
R41M	0.173	0.0788
R41N	0.199	-0.371
R41P	-0.0791	-0.655
R41Q	-0.31	0.698
R41S	-0.22	0.473
R41T	0.311	0.274
R41V	-0.196	-0.0931
R41W	0.107	0.227

Variant	scaled log2 fold change [1]	scaled log2 fold change [2]
R41Y	-0.195	-0.051
G42A	-0.139	0.0969
G42C	0.12	0.316
G42D	-0.168	0.162
G42E	-0.302	0.67
G42F	-0.0705	-0.21
G42H	0.257	-0.419
G42I	0.277	0.513
G42K	0.0974	0.00685
G42L	0.249	0.513
G42M	0.0351	0.622
G42N	0.133	-0.235
G42P	0.28	-0.219
G42Q	0.242	-0.336
G42R	0.1	-0.362
G42S	0.232	-0.298
G42T	0.268	0.377
G42V	0.365	-0.32
G42W	0.29	1
G42Y	0.307	–
P43A	-0.0498	1.29
P43C	-0.0655	0.841
P43D	-0.289	-0.259
P43E	0.224	0.236

Variant	scaled log2 fold change [1]	scaled log2 fold change [2]
P43F	-0.0201	0.822
P43G	0.283	0.825
P43H	0.442	-0.548
P43I	0.392	-0.356
P43K	0.0332	0.445
P43L	0.34	1.08
P43M	0.182	0.0394
P43N	0.14	1.24
P43Q	0.274	-0.32
P43R	0.273	0.259
P43S	-0.443	-0.3
P43T	0.0182	-0.259
P43V	0.149	0.888
P43W	-0.19	0.313
P43Y	0.138	0.846
G44A	0.246	2.06
G44C	-0.366	0.858
G44D	-0.0132	-0.461
G44E	0.197	1.12
G44F	-0.255	-0.00392
G44H	-0.319	–
G44I	0.034	0.323
G44K	0.187	-0.0828
G44L	-0.1	0.155

Variant	scaled log2 fold change [1]	scaled log2 fold change [2]
G44M	0.13	0.703
G44N	0.0836	-0.289
G44P	-0.094	0.309
G44Q	0.137	0.433
G44R	0.286	0.0773
G44S	0.141	-0.291
G44T	-0.238	0.0578
G44V	-0.00617	-0.478
G44W	0.253	0.857
G44Y	0.198	-0.79
G45A	0.315	-0.00746
G45C	0.409	-0.145
G45D	-0.348	0.907
G45E	0.346	1.07
G45F	-0.17	-0.167
G45H	0.0762	0.865
G45I	-0.00298	-0.325
G45K	0.0509	-0.713
G45L	0.411	-0.007
G45M	0.116	-0.315
G45N	0.148	0.842
G45P	-0.0714	-0.0345
G45Q	0.0494	0.513
G45R	0.363	-0.475

Variant	scaled log2 fold change [1]	scaled log2 fold change [2]
G45S	0.0305	-0.567
G45T	0.167	-0.525
G45V	0.149	-0.648
G45W	0.411	0.942
G45Y	0.16	0.922
S46A	0.558	0.128
S46C	0.738	0.494
S46D	0.694	0.458
S46E	0.844	0.526
S46F	0.279	0.769
S46G	0.864	0.651
S46H	0.263	1.09
S46I	0.589	0.715
S46K	0.678	0.519
S46L	0.572	0.692
S46M	0.376	0.185
S46N	0.338	0.643
S46P	0.0875	0.866
S46Q	0.68	0.186
S46R	0.93	0.639
S46T	0.617	0.182
S46V	0.489	0.421
S46Y	0.737	0.775
A47C	0.788	1.53

Variant	scaled log2 fold change [1]	scaled log2 fold change [2]
A47D	0.728	0.746
A47E	0.691	0.694
A47F	0.852	1.03
A47G	0.844	0.78
A47H	0.813	1.05
A47I	0.83	0.523
A47K	0.89	0.778
A47L	0.835	0.437
A47M	0.779	0.799
A47N	0.833	1.56
A47P	0.733	0.555
A47Q	0.722	0.93
A47R	0.994	1.12
A47S	0.89	0.276
A47T	0.83	0.802
A47V	0.764	0.63
A47W	0.856	0.727
A47Y	0.8	0.534
E48A	0.411	0.683
E48C	0.731	0.336
E48D	0.623	0.469
E48F	0.809	0.523
E48G	0.667	0.934
E48H	0.521	0.92

Variant	scaled log2 fold change [1]	scaled log2 fold change [2]
E48I	0.367	0.905
E48K	0.46	0.746
E48L	0.58	1.05
E48M	0.829	0.835
E48N	0.628	1.08
E48P	0.619	0.304
E48Q	0.747	0.877
E48R	0.787	0.683
E48S	0.616	0.679
E48T	0.74	-0.184
E48V	0.47	0.255
E48W	0.73	0.677
E48Y	0.494	1.46
A49C	0.313	-0.749
A49D	0.201	–
A49E	0.155	–
A49F	0.00966	-0.0173
A49G	-0.302	0.424
A49H	0.394	0.441
A49I	0.653	1.22
A49K	0.256	-0.293
A49L	-1.05	-0.62
A49M	-0.695	-1.02
A49N	-0.529	-0.853

Variant	scaled log2 fold change [1]	scaled log2 fold change [2]
A49P	0.382	0.203
A49Q	0.504	0.944
A49R	0.181	–
A49S	0.123	1.82
A49T	0.0135	–
A49V	-0.0734	–
A49W	0.372	-0.679
A49Y	0.29	-1.02
S50A	-0.353	0.141
S50C	0.19	0.37
S50D	-0.421	-0.999
S50E	0.344	0.116
S50G	0.758	–
S50H	0.126	0.0217
S50I	0.293	-1.28
S50K	-0.433	–
S50L	-0.847	–
S50M	-0.234	–
S50N	0.219	-0.357
S50P	-0.659	–
